Results reported in patent publication US20230086603A1 (BOLT BIOTHERAPEUTICS, published 2023).

Target: T1, human PD-L1 (hPD-L1) (human, UniProt Q9NZQ7 19-290)
T1 construct: Endogenous hPD-L1 on JIMT1 (JIMT-1) cells; also called programmed death-ligand 1; CD274
Experiment: flow cytometry on JIMT-1 cells expressing endogenous human PD-L1; anti-human IgG Fc secondary; geometric MFI
Experimental: Binding of the binding agents of an embodiment of the invention to human PD-L1 (hPD-L1) on cell surfaces was assessed by incubating the binding agents with JIMT1 cells that express endogenous hPD-L1. Briefly, the binding agents were diluted serially in FACS buffer (PBS+1% FBS+5 mM EDTA, pH 7.4) at 4° C. Diluted binding agents were applied to JIMT1 cells (˜1×10⁵-2×10⁵ per well) and incubated at 4° C. […] After unbound secondary antibody was washed out, cells were resuspended in FACS buffer plus 2% formaldehyde and analyzed by flow cytometry. The intensity of fluorescence, expressed as geometric mean fluorescence intensity, was used to determine anti-PDL1 binding agent binding to hPD-L1 on cell surface.

T1 sequence (Q9NZQ7 19-290 limits assumed): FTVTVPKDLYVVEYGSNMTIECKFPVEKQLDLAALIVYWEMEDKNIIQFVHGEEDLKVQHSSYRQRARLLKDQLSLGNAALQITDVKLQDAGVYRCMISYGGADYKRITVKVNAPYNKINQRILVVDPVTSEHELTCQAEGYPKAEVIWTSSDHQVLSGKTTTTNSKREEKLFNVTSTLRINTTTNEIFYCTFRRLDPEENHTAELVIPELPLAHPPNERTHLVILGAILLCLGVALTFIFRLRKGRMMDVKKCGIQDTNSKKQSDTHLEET

binding result	Binder
binds	9 (antibody, V domains shown) VH: QVQLVQSGAEVKKPGASVKVSCKASGHSFTHYYMHWVRQAPGQGLEWMGWMNPDSGSTGYAQKFQGRVTMTRDTSTSTVYMELSSLRSEDTAVYYCARALFPYPFYYYYMDVWGQGTLVTVSS VL: DIQMTQSPSSLSASVGDRVTITCRASQGIRNDLGWYQQKPGKAPKLLIYSASNLQSGVPSRFSGSGSGTDFTLTISSLQPEDFATYYCQQANSFPFTFGGGTKVEIK
binds	18 (antibody, V domains shown) VH: QVQLVQSGAEVKKPGASVKVSCKASGYTFTSYYMHWVRQAPGQGLEWVGWMTPSTGNAGYAQKFQGRVTMTRDTSTSTVYMELSSLRSEDTAVYYCAREEWLGHFQHWGQGTLVTVSS VL: DIQMTQSPSSLSASVGDRVTITCRASQGISNGLSWYQQKPGKAPKLLIYAASTLQSGVPSRFSGSGSGTDFTLTISSLQPEDFATYYCQQSHSTPLTFGGGTKVEIK
binds	1 (antibody, V domains shown) VH: QVQLVQSGAEVKKPGASVKVSCKASGGTFSSYAISWVRQAPGQGLEWMGVINPSAGSTDYAQKFQGRVTMTRDTSTSTVYMELSSLRSEDTAVYYCARDLYPYVVVVAAGSYGMDVWGQGTLVTVSS VL: DIQMTQSPSSLSASVGDRVTITCRASQGIDSYLAWYQQKPGKAPKLLIYAASSLQSGVPSRFSGSGSGTDFTLTISSLQPEDFATYYCQQSYSTPITFGGGTKVEIK
binds	16 (antibody, V domains shown) VH: QVQLVQSGAEVKKPGSSVKVSCKASGGTFSSYAISWVRQAPGQGLEWMGGIIPIFGTANYAQKFQGRVTITADESTSTAYMELSSLRSEDTAVYYCARGGYSYGSFQHWGQGTLVTVSS VL: DIQMTQSPSSLSASVGDRVTITCRASQGISNNLNWYQQKPGKAPKLLIYAATTLQSGVPSRFSGSGSGTDFTLTISSLQPEDFATYYCQQSYSTPYTFGGGTKVEIK
binds	13 (antibody, V domains shown) VH: QVQLVQSGAEVKKPGASVKVSCKASGYPFTSYYMHWVRQAPGQGLEWMGWMNPNSDIAGYAQKFQGRVTMTRDTSTSTVYMELSSLRSEDTAVYYCAREGRHGEYLYWGQGTLVTVSS VL: DIQMTQSPSSLSASVGDRVTITCRASQIISSYLNWYQQKPGKAPKLLIYAASSLQSGVPSRFSGSGSGTDFTLTISSLQPEDFATYYCQQGFSTPFTFGGGTKVEIK
binds	27 (antibody, V domains shown) VH: QVQLVQSGAEVKKPGASVKVSCKASGYTFTNYYIHWVRQAPGQGLEWMGWMSPNGGNTGYAQKFQGRVTMTRDTSTSTVYMELSSLRSEDTAVYYCARESWELTGFDYWGQGTLVTVSS VL: DIQMTQSPSSLSASVGDRVTITCQASQGISNYLAWYQQKPGKAPKLLIYDASSLQSGVPSRFSGSGSGTDFTLTISSLQPEDFATYYCQQSYSTPLTFGGGTKVEIK
binds	36 (antibody, V domains shown) VH: QVQLVQSGAEVKKPGSSVKVSCKASGGTFSTFGISWVRQAPGQGLEWMGGIIPIFGTANYAQKFQGRVTITADESTSTAYMELSSLRSEDTAVYYCARGGYSYGSFDYWGQGTLVTVSS VL: DIQMTQSPSSLSASVGDRVTITCRASQGISNNLNWYQQKPGKAPKLLIYATSTLQSGVPSRFSGSGSGTDFTLTISSLQPEDFATYYCQQSYSTPYTFGQGTKVEIK
binds	11 (antibody, V domains shown) VH: QVQLVQSGAEVKKPGASVKVSCKASGYTFTNYYIHWVRQAPGQGLEWLGWMNPNGDVAGYADSFQGRVTMTRDTSTSTVYMELSSLRSEDTAVYYCAIDSSGWMRNDAFDIWGQGTLVTVSS VL: DIQMTQSPSSLSASVGDRVTITCRASQGISQYLAWYQQKPGKAPKLLIYGASNLHSGVPSRFSGSGSGTDFTLTISSLQPEDFATYYCQQTFITPLTFGGGTKVEIK
binds	2 (antibody, V domains shown) VH: QVQLVQSGAEVKKPGASVKVSCKASGYTFTSYYMHWVRQAPGQGLEWMGWMNPNSDIAGYAQKFQGRVTMTRDTSTSTVYMELSSLRSEDTAVYYCAIPSIVGAYDAFDIWGQGTLVTVSS VL: DIQMTQSPSSLSASVGDRVTITCRASQSISSWLAWYQQKPGKAPKLLIYAASSLQSGVPSRFSGSGSGTDFTLTISSLQPEDFATYYCQQSYTTPITFGGGTKVEIK
binds	17 (antibody, V domains shown) VH: QVQLVQSGAEVKKPGASVKVSCKASGDTFTRHYVHWVRQAPGQGLEWMGWMSPSSGITGYAQKFQGRVTMTRDTSTSTVYMELSSLRSEDTAVYYCARVRWSSDAFDIWGQGTLVTVSS VL: not shown
binds	12 (antibody, V domains shown) VH: QVQLVQSGAEVKKPGASVKVSCKASGGTFSNYMYHWVRQAPGQGLEWMGWISTYHGSTNYAQKFQGRVTMTRDTSTSTVYMELSSLRSEDTAVYYCARDARGYSGYDLWGQGTLVTVSS VL: DIQMTQSPSSLSASVGDRVTITCRASQIIGNYLAWYQQKPGKAPKLLIYHASILETGVPSRFSGSGSGTDFTLTISSLQPEDFATYYCQQSYSTPTFGGGTKVEIK
binds	14 (antibody, V domains shown) VH: QVQLVQSGAEVKKPGASVKVSCKASGYRFTTYYVHWVRQAPGQGLEWMGWMNPNTVYTGSAQKFQGRVTMTRDTSTSTVYMELSSLRSEDTAVYYCAREGWGSSGYFDYWGQGTLVTVSS VL: DIQMTQSPSSLSASVGDRVTITCQASQDISNYLNWYQQKPGKAPKLLIYAASSLQSGVPSRFSGSGSGTDFTLTISSLQPEDFATYYCQQSFTNPVTFGGGTKVEIK
binds	23 (antibody, V domains shown) VH: QVQLVQSGAEVKKPGASVKVSCKASGYTFTGYYMHWVRQAPGQGLEWMGWISPNSGVTDFTQKFQGRVTMTRDTSTSTVYMELSSLRSEDTAVYYCARESWSGEFDYWGQGTLVTVSS VL: DIQMTQSPSSLSASVGDRVTITCRASQSITTYLNWYQQKPGKAPKLLIYAASSLQGGVPSRFSGSGSGTDFTLTISSLQPEDFATYYCQQSYSTPYTFGQGTKVEIK
binds	22 (antibody, V domains shown) VH: QVQLVQSGAEVKKPGASVKVSCKASGYTFTGYTLHWVRQAPGQGLEWMGWIDPNSGVTSSAQKFQGRVTMTRDTSTSTVYMELSSLRSEDTAVYYCARESEVMMAYFQHWGQGTLVTVSS VL: DIQMTQSPSSLSASVGDRVTITCQASQDISSYLNWYQQKPGKAPKLLIYAASSLQTGVPSRFSGSGSGTDFTLTISSLQPEDFATYYCQQSYSTPYTFGQGTKLEIK
binds	19 (antibody, V domains shown) VH: QVQLVQSGAEVKKPGASVKVSCKASGYTFTSHYMHWVRQAPGQGLEWMGWMNPNSGNTGYAQKFQGRVTMTRDTSTSTVYMELSSLRSEDTAVYYCARERFLGGMDVWGQGTTVTVSS VL: DIQMTQSPSSLSASVGDRVTITCRASQSITGWLAWYQQKPGKAPKLLIYAASSLQSGVPSRFSGSGSGTDFTLTISSLQPEDFATYYCQQSYSTPYTFGQGTKVEIK
binds	25 (antibody, V domains shown) VH: QVQLVQSGAEVKKPGASVKVSCKASGYTFTGYYMHWVRQAPGQGLEWMGWMNPNSDIAGYAQKFQGRVTMTRDTSTSTVYMELSSLRSEDTAVYYCARDAWELLAFDIWGQGTLVTVSS VL: DIQMTQSPSSLSASVGDRVTITCRASQSVSTWLAWYQQKPGKAPKLLIYAASNLESGVPSRFSGSGSGTDFTLTISSLQPEDFATYYCQQSYSTPYTFGQGTKLEIK
binds	26 (antibody, V domains shown) VH: QVQLAQSGAEVKKPGASVKVSCKASGYTFTNHYMHWVRQAPGQGLEWMGWMNPNSGNTGYAQKFQGRVTMTRDTSTSTVYMELSSLRSEDTAVYYCARDRWDGDYYSAWGQGTLVTVSS VL: DIQMTQSPSSLSASVGDRVTITCRASQSISNWLAWYQQKPGKAPKLLIYDVSHLESGVPSRFSGSGSGTDFTLTISSLQPEDFATYYCQQSYSTPFTFGPGTKVDIK
binds	20 (antibody, V domains shown) VH: QVQLVQSGAEVKKPGASVKVSCKASGYTFTDYYMHWVRQAPGQGLEWMGWMHPNSGHTGYAQKFQGRVTMTRDTSTSTVNMELSSLRSEDTAVYYCAREEWLGHFQHWGQGTLVTVSS VL: DIQMTQSPSSLSASVGDRVTITCRASQSISSWLAWYQQKPGKAPKLLIYDATHLETGVPSRFSGSGSGTDFTLTISSLQPEDFATYYCQQSYSTPITFGQGTRLEIK
binds	28 (antibody, V domains shown) VH: QVQLVQSGAEVKKPGASVKVSCKASGYTFTSYYMHWVRQAPGQGLEWMGWMNPNSGNTGYAQKFQGRVTMTRDTSTSTVYMELSSLRSEDTAVYYCARERFAGGMDAWGQGTTVTVSS VL: EIVMTQSPATLSVSPGERATLSCRASQSLSSSSLAWYQQKPGQAPRLLIYGASTRATGIPARFSGSGSGTEFTLTISSLQSEDFAVYYCQQYGSSPFTFGPGTKVDIK
binds	29 (antibody, V domains shown) VH: QVQLVQSGAEVKKPGASVKVSCKASGYTFSNSYMHWVRQAPGQGLEWMGWMDPSSGYTGSAHKFQGRVTMTRDTSTSTVYMELSSLRSEDTAVYYCAEDSGGAFDIWGQGTMVTVSS VL: DIQMTQSPSSLSASVGDRVTITCRASEHIANWLAWYQQKPGKAPKLLIYGVSSLESGVPSRFSGSGSGTDFTLTISSLQPEDFATYYCQQSYSTPYTFGQGTKLEIK
binds	24 (antibody, V domains shown) VH: QVQLVQSGAEVKKPGASVKVSCKASGDTFTNHYMHWVRQAPGQGLEWMGWMNPNSGHTGYAQRFQGRVTMTRDTSTSTVYMELSSLRSEDTAVYYCAREAVAGPMDVWGQGTTVTVSS VL: not shown
